Consider 31 variants from the supplement of paper PMC10567573.

B1: INTS3 (parent)
chain: DLNSKGKKREFRFHPIKETVVEEP
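Also: lentivirally expressed fusions sorted by FACS into six bins by GFP to DsRed ratio, PSI derived from sequencing read proportions per bin multiplied by bin number.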

This data set covers variants of B1. Kind of data set: protein stability index of a GFP-peptide fusion (GPS, HEK-293T) (PSI 1-6); higher = more stable. The conditions noted are these: c terminus: a fixed tail appended.
For DLNSKGKKREFRFHPIKETVVEER [P24R], the protein stability index worked out at 2.19.

In the case of DLNSKGKKREFRFHPIKETVVEES [P24S], the protein stability index came to 2.22.

With DLNSKGKKREFRFHPIKETVVEEC [P24C], the protein stability index stood at 2.54.

Consider DLNSKGKKREFRFHPIKETVVEED [P24D], for which the protein stability index was 2.4.

DLNSKGKKREFRFHPIKETVVEET [P24T]: the protein stability index is 2.38.

Take DLNSKGKKREFRFHPIKETVVEEI [P24I]: the protein stability index is 1.68.

Take DLNSKGKKREFRFHPIKETVVEEL [P24L]: the protein stability index is 2.35.

Take DLNSKGKKREFRFHPIKETVVEEE [P24E]: the protein stability index came to 2.6.

As to DLNSKGKKREFRFHPIKETVVEEQ [P24Q], the protein stability index worked out at 2.03.

On to DLNSKGKKREFRFHPIKETVVEEG [P24G], for which the protein stability index was found to be 2.25.

Turning to DLNSKGKKREFRFHPIKETVVEEV [P24V], the protein stability index is 2.46.

Turning to DLNSKGKKREFRFHPIKETVVEEF [P24F], the protein stability index is 2.81.

Turning to DLNSKGKKREFRFHPIKETVVEEW [P24W], the protein stability index stood at 2.84.

For the variant DLNSKGKKREFRFHPIKETVVEEN [P24N], the protein stability index amounted to 2.

In the case of DLNSKGKKREFRFHPIKETVVEEH [P24H], the protein stability index amounted to 2.36.

In the case of DLNSKGKKREFRFHPIKETVVEEA [P24A], the protein stability index worked out at 2.2.

On to DLNSKGKKREFRFHPIKETVVEEK [P24K], for which the protein stability index came out at 2.08.

DLNSKGKKREFRFHPIKETVVEEY [P24Y]: the protein stability index was 2.32.

Turning to DLNSKGKKREFRFHPIKETVVEEM [P24M], the protein stability index came to 1.92.

As to DLNSKGKKREFRFHPIKETVVERP [E23R], the protein stability index was 2.04.

As to DLNSKGKKREFRFHPIKETVVEKP [E23K], the protein stability index stood at 2.27.

Turning to DLNSKGKKREFRFHPIKETVVEMP [E23M], the protein stability index stood at 2.02.

For DLNSKGKKREFRFHPIKETVVELP [E23L], the protein stability index was found to be 2.19.

As for DLNSKGKKREFRFHPIKETVVESP [E23S], the protein stability index was 1.58.

DLNSKGKKREFRFHPIKETVVEYP [E23Y]: the protein stability index is 1.71.

With DLNSKGKKREFRFHPIKETVVEWP [E23W], the protein stability index stood at 1.48.

Take DLNSKGKKREFRFHPIKETVVENP [E23N]: the protein stability index was determined as 1.73.

For DLNSKGKKREFRFHPIKETVVETP [E23T], the protein stability index amounted to 2.24.

On to DLNSKGKKREFRFHPIKETVVEQP [E23Q], for which the protein stability index came out at 2.35.

DLNSKGKKREFRFHPIKETVVEPP [E23P]: the protein stability index was determined as 2.36.

With DLNSKGKKREFRFHPIKETVVEVP [E23V], the protein stability index worked out at 2.25.
